Measurements published in patent publication US20240409635A1.

Target: keyhole limpet haemocyanin
Assay: ELISA, KLH coated, 100 nM antibody

absorbance ratio to PBS blank	Substance
1.03	Adalimumab (antibody)
1.15	Ofatumumab (antibody)
